Measurements reported in the supplement of paper PMC12042874.
± gives the uncertainty stated by the source.

assay: amyloid nucleation score (Sup35N fusion, yeast selection) (log enrichment); library NNK1; higher = more nucleation; inactive = no reads after selection
Method in brief: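 For the nucleation score, DiMSum gave the log enrichment of output over input reads, centred on the mode score of non-aggregating sequences. Psi-negative yeast expressing Sup35N fused to peptides of 20 random codons were induced with 100 μM copper sulfate for 24 hours and grown 7 days at 30°C on medium lacking adenine and uracil. Input and output plasmid inserts were Illumina-sequenced, and sequences with under 100 input reads were excluded.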

| Substance | amyloid nucleation score |
| --- | --- |
| MLLWSVSLNKKKTLKECRRQ | 1.16 ± 0.67 |
| MLNINVTYGFGDLREWNRIF | 1.16 ± 0.13 |
| MLRMQKIGLFSLGMSC | -0.838 ± 0.47 |
| MLSGSVAESKNLIQLCAFFM | 6.704 ± 0.047 |
| MLVNSM | 0.497 ± 0.49 |
| MLYDFVDIRECNDILPARGG | 0.043 ± 0.35 |
| MMCGNLY | 0.625 ± 0.7 |
| MMLRLRT | inactive |
| MMRGTLC | 0.458 ± 0.41 |
| MMRTWGLFRVGRWESWRPVR | 0.26 ± 0.78 |
| MMVLKFGMLVLSGDLAPATS | 0.854 ± 0.72 |
| MNASITFSVLWVACETKCRV | 3.42 ± 0.14 |
| MNMICSFL | -1.39 ± 1.4 |
| MPAWFILGDVVL | 1.2 ± 0.35 |
| MPDFSWA | -0.115 ± 1.2 |
| MPNSPQS | -0.404 ± 0.3 |
| MQGDRQDGLYNKGDYPQFIF | -0.267 ± 0.39 |
| MQGFHSW | inactive |
| MQTLPIR | -0.519 ± 0.46 |
| MREGFTLFVDKDCNAGTYTW | inactive |
| MRGFHSQRHSIAECVAIQKG | 0.359 ± 0.37 |
| MRGTSEFYLVRGRYTCISRG | -0.292 ± 0.45 |
| MRLLIGEKIMWSLRCCSDKG | -0.263 ± 0.29 |
| MRLWLIWYISVMLTQNPRLW | 1.22 ± 0.46 |
| MRPPGNPGWWVRRKARWDPG | -0.506 ± 1 |
| MRSLSVLFGIRTCLTVQWSK | 0.276 ± 0.66 |

| Substance | amyloid nucleation score |
| --- | --- |
| MRWHINATLNGRLGAGLILV | -0.526 ± 0.7 |
| MRWSIFRSTWFCAYSSLVSS | 0.131 ± 0.5 |
| MRYMCVRY | 0.676 ± 0.46 |
| MSDLLSVVN | 0.142 ± 0.81 |
| MSEENSTNIIYSIVPKSL | inactive |
| MSGCLDDNANC | -0.382 ± 0.35 |
| MSISRALLGSSFMFGLVISA | -0.14 ± 0.83 |
| MSLSFAPLAIYPDNIVTDVI | -0.329 ± 0.7 |
| MSPLYNDFWYSCRIYKGEVM | 0.606 ± 0.55 |
| MSPWASNHLW | inactive |
| MSSIKQY | -1.07 ± 2.4 |
| MSSVVLANFEGPAHELATGV | -0.072 ± 0.58 |
| MSVLAIMHLGPGHFAAAYY | 0.186 ± 0.4 |
| MSVLALVPGYLSA | -0.088 ± 0.46 |
| MSVMLIS | 0.126 ± 0.44 |
| MSWNYCNDM | -0.045 ± 0.22 |
| MTAIFSRSSQNFFVGW | 7.154 ± 0.066 |
| MTCDVSKMCVSLRVVTSNGG | 1.27 ± 0.31 |
| MTDMVVSCCMPAEVQRRSGA | 0.009 ± 1.1 |
| MTVCM | 0.125 ± 1.4 |
| MTVKSAPK | 0.258 ± 0.55 |
| MTVYLITNRHLR | 0.905 ± 0.64 |
| MTWNNWCSMRLACIS | 3.9 ± 0.074 |
| MVAEIYQAFWVC | -0.349 ± 1.2 |
| MVDFNSRSKYSVYLSHRGKF | 1.7 ± 0.11 |
| MVFSLSCFKSFTCYTYMCTA | 7.15 ± 0.055 |

| Substance | amyloid nucleation score |
| --- | --- |
| MVGCTYVCLADLFCKLLLMS | -0.015 ± 0.41 |
| MVKYYNTQHDGVSFIEIRLL | 0.527 ± 0.33 |
| MVNILIK | 0.462 ± 0.49 |
| MVTCGYKDFK | -1.7 ± 1.5 |
| MVTTWVHGYVWRANGQTLFR | 1.28 ± 0.7 |
| MVVFMYVST | 0.289 ± 0.39 |
| MVVLRFAKCDSCMTSMAKIL | -0.045 ± 0.3 |
| MVVVVRTVLQVMRGR | 0.189 ± 0.76 |
| MWNGMAGMSQAGSCQRCS | -0.287 ± 0.71 |
| MWPRIPLRDPVVWEHRYCGI | -0.391 ± 0.65 |
| MWSGLIDYMEYLLGWLCT | 0.528 ± 1.2 |
| MWTFWFSVCTYLFL | 2.37 ± 0.2 |
| MWWHVSSMQDRDSGDFNGLL | 0.323 ± 0.22 |
| MYFCM | 6.7 ± 0.059 |
| MYFIVCTSWGSVVDRGIH | inactive |
| MYGCFSGGSVFSSYAALFVI | -0.766 ± 0.41 |
| MYLITGKIARNAKTDSPGSN | -0.52 ± 0.68 |
| MYSHFCVYCNFYLSCNSSLI | 7.034 ± 0.05 |
| MYTFN | -0.031 ± 0.19 |
| MYTQGMYQEDSRDGNGW | -0.189 ± 0.25 |
| MYVNSSNYDLWMNFKIVFWA | 1.18 ± 0.25 |
| NAACLVLGNVSSFEYSSQMG | 2.41 ± 0.27 |
| NACGQVLCWYL | 8.816 ± 0.058 |
| NADCAYYDERYRYSSWLYFY | -1.2 ± 1.1 |
| NAFCHAYSI | -1.49 ± 1.2 |
| NAFQRV | 0.6 ± 0.72 |

| Substance | amyloid nucleation score |
| --- | --- |
| NAFSDRLTGCRLRGGMGRTS | -0.526 ± 0.88 |
| NAGMSLRTFSLYSSWLIVPV | 0.179 ± 1 |
| NAIGILRHLTRMFPFD | 0.747 ± 0.44 |
| NAMVDGQGILIHSL | inactive |
| NARPYRPSFILQSL | -0.698 ± 0.54 |
| NARWSGISFQC | -0.115 ± 0.87 |
| NASCFADKPLLCSLTGRVMD | -0.043 ± 0.49 |
| NCDDIYKYMVIVQGSQLFI | -0.211 ± 0.32 |
| NCHSSFYGNDIGGLSHVMCL | 1.89 ± 0.7 |
| NCNIMNFIDTCLCGAMYYFR | 4.12 ± 0.078 |
| NCTRWTLNTDVCSLDRHVPH | -0.5 ± 2.1 |
| NDLAKHLGFTVTF | 0.011 ± 0.28 |
| NDTMWMSSGLSPCVSSPSLG | -0.252 ± 1.4 |
| NDVFEHIITFCILRVYHMFC | -0.577 ± 0.3 |
| NDYYCFHRAIFFDTGMYFSN | -0.009 ± 0.41 |
| NECLWSSFYLIICFLVCYYY | 0.278 ± 0.46 |
| NEVMRFLSTCCMWIIHTSKV | inactive |
| NFFYT | -0.758 ± 1.1 |
| NFGLPMYYFANDLESTDVVS | -0.115 ± 1.4 |
| NFKNRPSRLSRSNRSLFSTG | -0.887 ± 0.85 |
| NFLLTRPAAHELC | inactive |
| NFLPVLVCQPLSWLLIPLLY | 0.309 ± 0.31 |
| NFMIMKSCDRSSLCHFMSYC | 7.436 ± 0.069 |
| NFNRRRLCIIMKFDDPPLHG | 0.102 ± 0.24 |
| NFRAWS | 0.129 ± 0.93 |
| NFRHFILVYLMPFT | inactive |

| Substance | amyloid nucleation score |
| --- | --- |
| NFRLEYDLCVGLTSSHIGGL | -0.219 ± 0.48 |
| NFSYMLLLAPSKVTRAGCFV | -0.134 ± 1.3 |
| NGFLHIRLRISALCELL | 0.137 ± 0.57 |
| NGFSYVCFNGFQLMCLDSIM | 7.779 ± 0.044 |
| NGHHALLYMPFAQTC | -0.745 ± 1.2 |
| NGLFIRYSVVMAYSELEVVG | -0.162 ± 0.7 |
| NGLSMSLSCRYTLWVIFFSF | -0.157 ± 1.2 |
| NGMSSFRCLYMWARTFPVSN | -0.424 ± 0.99 |
| NGMVTLYR | 0.977 ± 0.55 |
| NGRFSADS | -1.77 ± 1.6 |
| NGSSLVANELRVWIVSSFML | -0.59 ± 0.64 |
| NGTAVCLVRSLVYAHHGRQG | 0.481 ± 0.38 |
| NGVVLLFFSDSADMRLCAAM | 0.319 ± 0.58 |
| NGWILNLVWTVKNTSMTLIW | 0.678 ± 0.51 |
| NGYYRLSWIKWVQKDGRVRR | 0.598 ± 1 |
| NHCSLFCAFSW | 1.86 ± 0.67 |
| NIFWST | 0.361 ± 0.78 |
| NIGVMVLVLDARKDKRFGKI | 7.65 ± 0.082 |
| NIIDVTSDSCKPYHILEAIV | 0.015 ± 0.34 |
| NILMFEMVVRSFIGLTEKFL | 0.69 ± 1 |
| NINYLFVLYMDGSCMYWRAL | 6.354 ± 0.049 |
| NISDTIC | 0.474 ± 0.85 |
| NISVVGSSING | 0.713 ± 0.23 |
| NKEVNYTNIINCVGIRGCRL | 4.77 ± 0.051 |
| NKKKSLRWKGTGNGVPLVVQ | -0.399 ± 0.86 |
